Results taken from patent US20030228663A1.

Molecular target: HER2 extracellular domain (HER2-ECD) (human) (UniProt P04626)
Assay: SPR (BIAcore 2000 or 3000), Fab over immobilized HER2-ECD, 37 °C, KD = koff/kon

Work on “hu4D5-8 Fab M.7 (N30(VL)S+H91(VL)F+Y92(VL)W+T94(VL)S+D98(VH)W+Y100a(VH)F+Y102(VH)V)” yielded a Kd of 0.38 nM.
